Results from patent US20220402983A1 (Janssen / Centocor, published 2022).
*1 amine or outer side, *2 acyl side, *3 side chain or, on linkers, in order; H or OH if unused. Bridges are numbered along the chain shown (N, C = ends). [ ]: non-standard residue; d: D form. (N-(imidazol-2-yl)methyl)Asn = N-(imidazol-2-yl)methyl-asparagine, O=C(C[C@H](N[*:1])C(=O)[*:2])NCc1ncc[nH]1; (N-(3-aminophenyl))Asn = N-(3-aminophenyl)-asparagine, O=C(C[C@H](N[*:1])C(=O)[*:2])Nc1cccc(N[*:3])c1; (N-(3-Pyz))Asn = N-pyrazol-3-yl-asparagine, O=C(C[C@H](N[*:1])C(=O)[*:2])Nc1cc[nH]n1; dPhe(3-NH2) = D-3-aminophenylalanine, O=C([C@@H](Cc1cccc(N[*:3])c1)N[*:1])[*:2]; Trp(7-Me) = Cc1cccc2c(C[C@H](N)C(=O)O)c[nH]c12; (N-Pyr)Asn = N-pyrrolidin-3-yl-asparagine; dPhe(4-NH2) = Nc1ccc(C[C@@H](N)C(=O)O)cc1; (N-Pip)Asn = N-piperidin-4-yl-asparagine; 2Nal = N[C@@H](Cc1ccc2ccccc2c1)C(=O)O; AEF = NCCOc1ccc(C[C@H](N)C(=O)O)cc1; αMeF = C[C@](N)(Cc1ccccc1)C(=O)O; 3Pal = N[C@@H](Cc1cccnc1)C(=O)O; Pen = CC(C)(S)[C@H](N)C(=O)O; αMeK = C[C@](N)(CCCCN)C(=O)O; αMeC = C[C@](N)(CS)C(=O)O; Thp = NC1(C(=O)O)CCOCC1; Abu = CC[C@H](N)C(=O)O

T1: human IL-23R (interleukin-23 receptor) (human, UniProt Q5VWK5 24-629)
T1 sequence (looked up): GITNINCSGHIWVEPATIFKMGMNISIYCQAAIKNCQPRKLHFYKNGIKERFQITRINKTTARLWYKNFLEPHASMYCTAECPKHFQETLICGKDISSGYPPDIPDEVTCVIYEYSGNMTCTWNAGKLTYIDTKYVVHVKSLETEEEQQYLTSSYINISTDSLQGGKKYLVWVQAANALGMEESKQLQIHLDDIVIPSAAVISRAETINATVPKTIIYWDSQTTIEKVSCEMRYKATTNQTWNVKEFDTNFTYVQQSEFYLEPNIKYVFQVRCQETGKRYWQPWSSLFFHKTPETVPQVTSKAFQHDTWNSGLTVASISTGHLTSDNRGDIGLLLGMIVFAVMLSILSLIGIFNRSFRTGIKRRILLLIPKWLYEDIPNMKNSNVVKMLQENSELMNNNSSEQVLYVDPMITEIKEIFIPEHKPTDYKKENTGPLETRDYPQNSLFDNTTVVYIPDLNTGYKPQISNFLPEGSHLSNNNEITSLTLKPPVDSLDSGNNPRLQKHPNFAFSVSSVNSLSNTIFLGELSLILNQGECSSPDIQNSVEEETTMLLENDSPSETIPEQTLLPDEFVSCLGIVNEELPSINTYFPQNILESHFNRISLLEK

B1: Compound No. 114 (peptide)
peptide: Ac-[Pen]NT[Trp(7-Me)]K(Ac)[Pen][AEF][2Nal][αMeK]K(Ac)N[αMeF][dPhe(4-NH2)]-NH2
modifications: disulfide 1-6
SMILES: CC(=O)NCCCC[C@@H]1NC(=O)[C@H](Cc2c[nH]c3c(C)cccc23)NC(=O)[C@H]([C@@H](C)O)NC(=O)[C@H](CC(N)=O)NC(=O)[C@@H](NC(C)=O)C(C)(C)SSC(C)(C)[C@@H](C(=O)N[C@@H](Cc2ccc(OCCN)cc2)C(=O)N[C@@H](Cc2ccc3ccccc3c2)C(=O)N[C@@](C)(CCCCN)C(=O)N[C@@H](CCCCNC(C)=O)C(=O)N[C@@H](CC(N)=O)C(=O)N[C@@](C)(Cc2ccccc2)C(=O)N[C@H](Cc2ccc(N)cc2)C(N)=O)NC1=O
B2: Compound No. 115 (peptide)
peptide: Ac-[Pen]NT[Trp(7-Me)]K(Ac)[Pen][AEF][2Nal][αMeK]K(Ac)N[αMeF][dPhe(3-NH2)]-NH2
modifications: disulfide 1-6
SMILES: CC(=O)NCCCC[C@@H]1NC(=O)[C@H](Cc2c[nH]c3c(C)cccc23)NC(=O)[C@H]([C@@H](C)O)NC(=O)[C@H](CC(N)=O)NC(=O)[C@@H](NC(C)=O)C(C)(C)SSC(C)(C)[C@@H](C(=O)N[C@@H](Cc2ccc(OCCN)cc2)C(=O)N[C@@H](Cc2ccc3ccccc3c2)C(=O)N[C@@](C)(CCCCN)C(=O)N[C@@H](CCCCNC(C)=O)C(=O)N[C@@H](CC(N)=O)C(=O)N[C@@](C)(Cc2ccccc2)C(=O)N[C@H](Cc2cccc(N)c2)C(N)=O)NC1=O
B3: Compound No. 116 (peptide)
peptide: Ac-[Pen]NT[Trp(7-Me)]K(Ac)[Pen][AEF][2Nal][αMeK]K(Ac)N[αMeF][3Pal]-NH2
modifications: disulfide 1-6
SMILES: CC(=O)NCCCC[C@@H]1NC(=O)[C@H](Cc2c[nH]c3c(C)cccc23)NC(=O)[C@H]([C@@H](C)O)NC(=O)[C@H](CC(N)=O)NC(=O)[C@@H](NC(C)=O)C(C)(C)SSC(C)(C)[C@@H](C(=O)N[C@@H](Cc2ccc(OCCN)cc2)C(=O)N[C@@H](Cc2ccc3ccccc3c2)C(=O)N[C@@](C)(CCCCN)C(=O)N[C@@H](CCCCNC(C)=O)C(=O)N[C@@H](CC(N)=O)C(=O)N[C@@](C)(Cc2ccccc2)C(=O)N[C@@H](Cc2cccnc2)C(N)=O)NC1=O
B4: Compound No. 117 (peptide)
peptide: Ac-CNT[Trp(7-Me)]K(Ac)[αMeC][AEF][2Nal][αMeK]K(Ac)N[Thp]-NH2
modifications: disulfide 1-6
SMILES: CC(=O)NCCCC[C@@H]1NC(=O)[C@H](Cc2c[nH]c3c(C)cccc23)NC(=O)[C@H]([C@@H](C)O)NC(=O)[C@H](CC(N)=O)NC(=O)[C@@H](NC(C)=O)CSSC[C@@](C)(C(=O)N[C@@H](Cc2ccc(OCCN)cc2)C(=O)N[C@@H](Cc2ccc3ccccc3c2)C(=O)N[C@@](C)(CCCCN)C(=O)N[C@@H](CCCCNC(C)=O)C(=O)N[C@@H](CC(N)=O)C(=O)NC2(C(N)=O)CCOCC2)NC1=O
B5: Compound No. 118 (peptide)
peptide: Ac-CNT[Trp(7-Me)]K(Ac)[αMeC][AEF][2Nal][αMeK]K(Ac)N[αMeF]-NH2
modifications: disulfide 1-6
SMILES: CC(=O)NCCCC[C@@H]1NC(=O)[C@H](Cc2c[nH]c3c(C)cccc23)NC(=O)[C@H]([C@@H](C)O)NC(=O)[C@H](CC(N)=O)NC(=O)[C@@H](NC(C)=O)CSSC[C@@](C)(C(=O)N[C@@H](Cc2ccc(OCCN)cc2)C(=O)N[C@@H](Cc2ccc3ccccc3c2)C(=O)N[C@@](C)(CCCCN)C(=O)N[C@@H](CCCCNC(C)=O)C(=O)N[C@@H](CC(N)=O)C(=O)N[C@@](C)(Cc2ccccc2)C(N)=O)NC1=O
B6: Compound No. 119 (peptide)
peptide: CNTXQCFXKKNF
modifications: Ac-[Cys]-N-T-[W(7-Me)]-Q-[aMeCys]-Phe[4-(2-aminoethoxy)]-[2-Nal]-[a-MeLys]-[Lys(Ac)]-N-[a-MePhe]-NH2; cyclized: Cys-aMeCys disulfide bond
B7: Compound No. 120 (peptide)
peptide: CNTXQCFXKKNX
modifications: Ac-[Cys]-N-T-[W(7-Me)]-Q-[aMeCys]-Phe[4-(2-aminoethoxy)]-[2-Nal]-[a-MeLys]-[Lys(Ac)]-N-[THP]-NH2; cyclized: Cys-aMeCys disulfide bond
B8: Compound No. 121 (peptide)
peptide: Ac-CNTWK(Ac)[αMeC][AEF][2Nal][αMeK]K(Ac)N[Thp]-NH2
modifications: disulfide 1-6
SMILES: CC(=O)NCCCC[C@@H]1NC(=O)[C@H](Cc2c[nH]c3ccccc23)NC(=O)[C@H]([C@@H](C)O)NC(=O)[C@H](CC(N)=O)NC(=O)[C@@H](NC(C)=O)CSSC[C@@](C)(C(=O)N[C@@H](Cc2ccc(OCCN)cc2)C(=O)N[C@@H](Cc2ccc3ccccc3c2)C(=O)N[C@@](C)(CCCCN)C(=O)N[C@@H](CCCCNC(C)=O)C(=O)N[C@@H](CC(N)=O)C(=O)NC2(C(N)=O)CCOCC2)NC1=O
B9: Compound No. 122 (peptide)
peptide: Ac-CNTWK(Ac)[αMeC][AEF][2Nal][αMeK]K(Ac)N[αMeF]-NH2
modifications: disulfide 1-6
SMILES: CC(=O)NCCCC[C@@H]1NC(=O)[C@H](Cc2c[nH]c3ccccc23)NC(=O)[C@H]([C@@H](C)O)NC(=O)[C@H](CC(N)=O)NC(=O)[C@@H](NC(C)=O)CSSC[C@@](C)(C(=O)N[C@@H](Cc2ccc(OCCN)cc2)C(=O)N[C@@H](Cc2ccc3ccccc3c2)C(=O)N[C@@](C)(CCCCN)C(=O)N[C@@H](CCCCNC(C)=O)C(=O)N[C@@H](CC(N)=O)C(=O)N[C@@](C)(Cc2ccccc2)C(N)=O)NC1=O
B10: Compound No. 123 (peptide)
peptide: Ac-[dR][Abu]QTWQC[AEF][2Nal][Thp]EN[αMeF]-NH2
modifications: thioether 2-7
B11: Compound No. 124 (peptide)
peptide: Ac-[dR][Pen]NT[Trp(7-Me)]K(Ac)[Pen][AEF][2Nal][Thp]EN[αMeF]-NH2
modifications: disulfide 2-7
SMILES: CC(=O)NCCCC[C@@H]1NC(=O)[C@H](Cc2c[nH]c3c(C)cccc23)NC(=O)[C@H]([C@@H](C)O)NC(=O)[C@H](CC(N)=O)NC(=O)[C@@H](NC(=O)[C@@H](CCCNC(=N)N)NC(C)=O)C(C)(C)SSC(C)(C)[C@@H](C(=O)N[C@@H](Cc2ccc(OCCN)cc2)C(=O)N[C@@H](Cc2ccc3ccccc3c2)C(=O)NC2(C(=O)N[C@@H](CCC(=O)O)C(=O)N[C@@H](CC(N)=O)C(=O)N[C@@](C)(Cc3ccccc3)C(N)=O)CCOCC2)NC1=O
B12: Compound No. 127 (peptide)
peptide: Ac-[dR][Pen]QTWQ[Pen][AEF][2Nal][Thp]EN[(N-Pip)Asn]-NH2
modifications: disulfide 2-7
B13: Compound No. 128 (peptide)
peptide: Ac-[dR][Pen]QTWQ[Pen][AEF][2Nal][Thp]EN[(N-Pyr)Asn]-NH2
modifications: disulfide 2-7
B14: Compound No. 130 (peptide)
peptide: Ac-[dR][Pen]QTWQ[Pen][AEF][2Nal][Thp]EN[(N-(3-aminophenyl))Asn]-NH2
modifications: disulfide 2-7
SMILES: CC(=O)N[C@H](CCCNC(=N)N)C(=O)N[C@@H]1C(=O)N[C@@H](CCC(N)=O)C(=O)N[C@@H]([C@@H](C)O)C(=O)N[C@@H](Cc2c[nH]c3ccccc23)C(=O)N[C@@H](CCC(N)=O)C(=O)N[C@H](C(=O)N[C@@H](Cc2ccc(OCCN)cc2)C(=O)N[C@@H](Cc2ccc3ccccc3c2)C(=O)NC2(C(=O)N[C@@H](CCC(=O)O)C(=O)N[C@@H](CC(N)=O)C(=O)N[C@@H](CC(=O)Nc3cccc(N)c3)C(N)=O)CCOCC2)C(C)(C)SSC1(C)C
B15: Compound No. 133 (peptide)
peptide: Ac-[dR][Pen]QTWQ[Pen][AEF][2Nal][Thp]EN[(N-(3-Pyz))Asn]-NH2
modifications: disulfide 2-7
SMILES: CC(=O)N[C@H](CCCNC(=N)N)C(=O)N[C@@H]1C(=O)N[C@@H](CCC(N)=O)C(=O)N[C@@H]([C@@H](C)O)C(=O)N[C@@H](Cc2c[nH]c3ccccc23)C(=O)N[C@@H](CCC(N)=O)C(=O)N[C@H](C(=O)N[C@@H](Cc2ccc(OCCN)cc2)C(=O)N[C@@H](Cc2ccc3ccccc3c2)C(=O)NC2(C(=O)N[C@@H](CCC(=O)O)C(=O)N[C@@H](CC(N)=O)C(=O)N[C@@H](CC(=O)Nc3cc[nH]n3)C(N)=O)CCOCC2)C(C)(C)SSC1(C)C
B16: Compound No. 137 (peptide)
peptide: Ac-[dR][Pen]QTWQ[Pen][AEF][2Nal][Thp]EN[(N-(imidazol-2-yl)methyl)Asn]-NH2
modifications: disulfide 2-7
SMILES: CC(=O)N[C@H](CCCNC(=N)N)C(=O)N[C@@H]1C(=O)N[C@@H](CCC(N)=O)C(=O)N[C@@H]([C@@H](C)O)C(=O)N[C@@H](Cc2c[nH]c3ccccc23)C(=O)N[C@@H](CCC(N)=O)C(=O)N[C@H](C(=O)N[C@@H](Cc2ccc(OCCN)cc2)C(=O)N[C@@H](Cc2ccc3ccccc3c2)C(=O)NC2(C(=O)N[C@@H](CCC(=O)O)C(=O)N[C@@H](CC(N)=O)C(=O)N[C@@H](CC(=O)NCc3ncc[nH]3)C(N)=O)CCOCC2)C(C)(C)SSC1(C)C

Molecular target: T1, human IL-23R (interleukin-23 receptor)
Experiment: cell-based or functional assay

| Binder | PBMC pSTAT3 IC50 (nM) |
| --- | --- |
| B1 | 12 |
| B2 | 39 |
| B3 | 20 |
| B4 | 7.1 |
| B5 | 30 |
| B6 | 5.3 |
| B7 | 4.9 |
| B8 | 41 |
| B9 | 54 |
| B10 | 11 |
| B11 | 11 |
| B12 | 48 |
| B13 | 51 |
| B14 | 9.2 |
| B15 | 21 |
| B16 | 14 |
